From patent US20100015637A1 (AbbVie / Abbott, published 2010)
Values belong to the molecule of their own block, whether it stands above or below them.

What was measured:
[1] = biological target: human PlGF-1 comprising amino acids 1-137 produced in human embryonic kidney cells (human) (UniProt P49763); test: Format 2 …, capture MAb264, detection Pb264; sFlt-1 2300 pmol/L (ratio 75)
[2] = biological target: human PlGF-1 comprising amino acids 1-137 produced in human embryonic kidney cells (human) (UniProt P49763); test: Format 1 …, capture 2-826-335, detection 1-255-713; sFlt-1 613 pmol/L (ratio 20)
[3] = biological target: human PlGF-1 comprising amino acids 1-137 produced in human embryonic kidney cells (human) (UniProt P49763); test: Format 3 Quantikine ELISA, capture MAb264, detection Pb264; sFlt-1 920 pmol/L (ratio 30)
[4] = biological target: human PlGF-1 comprising amino acids 1-137 produced in human embryonic kidney cells (human) (UniProt P49763); test: Format 2 …, capture MAb264, detection Pb264; sFlt-1 920 pmol/L (ratio 30)
[5] = biological target: human PlGF-1 comprising amino acids 1-137 produced in human embryonic kidney cells (human) (UniProt P49763); test: Format 2 …, capture MAb264, detection Pb264; sFlt-1 4600 pmol/L (ratio 150)
[6] = biological target: human PlGF-1 comprising amino acids 1-137 produced in human embryonic kidney cells (human) (UniProt P49763); test: Format 1 …, capture 2-826-335, detection 1-255-713; sFlt-1 307 pmol/L (ratio 10)
[7] = biological target: recombinant human PlGF-1 (comprising amino acids 1-131) expressed in E. coli (R&D Systems) (human) (UniProt P49763); test: … sandwich, capture MAb255, detection pAb264; antigen 750 pg/mL
[8] = biological target: T1, human PlGF-1 fragment (comprising amino acids 17-131) produced in human embryonic kidney cells (human, UniProt P49763 35-221); test: … sandwich, capture MAb255, detection MAb826; antigen 0 pg/mL (blank)
T1 sequence: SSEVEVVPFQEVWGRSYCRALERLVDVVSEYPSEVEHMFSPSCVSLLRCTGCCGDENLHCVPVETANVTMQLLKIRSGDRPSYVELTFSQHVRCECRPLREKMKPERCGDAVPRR
Method in brief: (§1)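 In a sandwich immunoassay, human PlGF-1 antigen preparations, including recombinant forms expressed in CHO cells, were tested at 0 to 1500 pg/mL. Magnetic microparticles carried a monoclonal anti-human PlGF-1 capture antibody, attached by passive coating and EDAC cross-linking, and a second monoclonal anti-human PlGF-1 antibody labeled with acridinium ester served for detection. At each antigen level, the chemiluminescent signal was read in relative light units (RLU).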

[9] = biological target: T2, human PlGF-1 comprising amino acids 1-137 produced in human embryonic kidney cells (human, UniProt P49763 19-221); test: as above
T2 construct: Mature human PlGF-1 with 6xHis tag; also called HEK (1-137); full length HEK human PlGF-1 (1-137)
T2 sequence: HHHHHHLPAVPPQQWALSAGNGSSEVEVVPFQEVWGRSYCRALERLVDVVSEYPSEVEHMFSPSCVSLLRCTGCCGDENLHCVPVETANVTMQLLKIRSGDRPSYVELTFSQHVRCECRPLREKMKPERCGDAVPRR
Method in brief: as §1

[10] = biological target: T3, CHO human PlGF-1 comprising amino acids 1-137 (human PlGF-1-His (1-131), CHO 6305) (human, UniProt P49763 19-221, N-glycans at N21 (completely glycosylated) and N89 (partially glycosylated)); test: as above
T3 construct: Mature human PlGF-1 with 6xHis tag (137 amino acids); also called CHO (1-137)
T3 sequence: T2 sequence
Method in brief: as §1

[11] = biological target: T4, CHO human PlGF-1 fragment (comprising amino acids 17-131; ATCC PTA-8540) (human, UniProt P49763 35-221); test: as above
T4 sequence: T1 sequence
Method in brief: as §1

[12] = biological target: T1, human PlGF-1 fragment (comprising amino …); test: … sandwich, capture MAb255, detection pAb264; antigen 60 pg/mL
[13] = biological target: T2, human PlGF-1 comprising amino acids …; test: as above
[14] = biological target: T3, CHO human PlGF-1 comprising amino acids …; test: as above
[15] = biological target: T4, CHO human PlGF-1 fragment (comprising …); test: as above
[16] = biological target: recombinant human PlGF-1 (comprising amino acids 1-131) expressed in E. coli (R&D Systems) (human) (UniProt P49763); test: … sandwich, capture MAb255, detection MAb826; antigen 1500 pg/mL
[17] = biological target: recombinant human PlGF-1 (comprising amino acids 1-131) expressed in E. coli (R&D Systems) (human) (UniProt P49763); test: … sandwich, capture MAb826, detection pAb264; antigen 1500 pg/mL
[18] = biological target: T1, human PlGF-1 fragment (comprising amino …); test: … sandwich, capture MAb826, detection pAb264; antigen 60 pg/mL
[19] = biological target: T4, CHO human PlGF-1 fragment (comprising …); test: as above

- % Inhibition [1]: 95%
- PlGF-1 Measured [1]: 39.7 pg/mL
- % Inhibition [2]: 88.3%
- PlGF-1 Measured [2]: 120 pg/mL
- % Inhibition [3]: 45%
- PlGF-1 Measured [3]: 476 pg/mL
- % Inhibition [4]: 91.3%
- PlGF-1 Measured [4]: 68.2 pg/mL
- % Inhibition [5]: 96.5%
- PlGF-1 Measured [5]: 27.5 pg/mL
- % Inhibition [6]: 80.7%
- PlGF-1 Measured [6]: 197 pg/mL
Molecule: native sFlt-1, isolated from human placental tissue (from UniProt P17948 27-687) (receptor)

- RLU [7]: 1.32e+06 RLU
- RLU [8]: 5760 RLU
- RLU [9]: 6110 RLU
- RLU [10]: 6270 RLU
- RLU [11]: 5940 RLU
- RLU [12]: 107000 RLU
- RLU [13]: 165000 RLU
- RLU [14]: 71600 RLU
- RLU [15]: 81200 RLU
- RLU [16]: 1.35e+06 RLU
B1: monoclonal antibody 1-255-713 (produced by murine hybridoma cell line 1-255-713, ATCC PTA-8536) (antibody, mouse IgG2a, V domains shown)
VH: QVHLQQSGAELMKPGASVKISCKATGYTFSSYWIEWVKQRPGHGLEWIGEILPGSVSNNFNEKFKDKATLTADPSSNTAYIQVSSLTSEDSAVYYCARSTGFYYGGNYFDHWGQGTTLAVSS
VL: DVVMTQTPLSLPVSPGDQASISCRSSQSLVHSNGHTYLHWYLQKPGQSPKLLIYKVSNRFSGVPDRVSGSGSGTDFTLKISRVEAEDLGVYFCSQSTHVPPTFGGGTKLEIKR
notes: also called MAb255

- RLU [17]: 1.08e+06 RLU
- RLU [18]: 36900 RLU
- RLU [19]: 28200 RLU
B2: monoclonal antibody 2-826-335 (produced by murine hybridoma cell line 2-826-335, ATCC PTA-8539) (antibody, mouse IgG1, V domains shown)
VH: QVQLKQSGPGLVQPSQSLSITCTVSGFSLTTYGIHWVRQSPGKGLEWLGVMWSGGDTDYDAAFISRLSISKDNSKSQVFFKMNSLQANDTGIYYCARYRFYGMDYWGQGTSVTVSS
VL: AIQMTQSSSSFSVSLGDRVTITCKASEDIYNRFAWYQQKPGNAPRLLISGAASLEAGVPSRFSGSGSGQDYTLSITSLQTEDVATYYCQQYWSTPWTFGGGTKLEIKR
notes: also called MAb826
